# In US20110098217A1 (INDIANA UNIVERSITY RESEARCH AND TECHNOLOGY, published 2011):
# Numbered stars: 1 amine (or outer) side, 2 acyl side, 3 side chain; on linkers, the order of the positions; unused ones are H or OH. Bridge positions count the residues as written; N and C are the ends. Square brackets hold non-standard residues; d marks the D form. Side chains are listed from the residue outwards. Ends that are not written are not given here. CSA‑2 = Cys(S-CH2CH2COOH), S-(2-carboxyethyl)-L-cysteine, O=C([C@H](CSCCC(=O)[*:3])N[*:1])[*:2]; CSA‑1 = Cys(S-CH2COOH), S-carboxymethyl-L-cysteine, O=C([C@H](CSCC(=O)[*:3])N[*:1])[*:2]; Glu = Glu spacer between Lys side chain and the C16 fatty acid (EC16FA); Abu(4-SO3H) = N[C@@H](CCS(=O)(=O)O)C(=O)O; PhLac = O=C(O)[C@@H](O)Cc1ccccc1; Aad = N[C@@H](CCCC(=O)O)C(=O)O
# B1: [PLA^6, D^9]Glucagon(aa6-29)-COOH (peptide)
# peptide: [PhLac]TSDYSKYLDSRRAQDFVQWLMNT-OH
# modifications: N-terminus assumed
# SMILES: CSCC[C@H](NC(=O)[C@H](CC(C)C)NC(=O)[C@H](Cc1c[nH]c2ccccc12)NC(=O)[C@H](CCC(N)=O)NC(=O)[C@@H](NC(=O)[C@H](Cc1ccccc1)NC(=O)[C@H](CC(=O)O)NC(=O)[C@H](CCC(N)=O)NC(=O)[C@H](C)NC(=O)[C@H](CCCNC(=N)N)NC(=O)[C@H](CCCNC(=N)N)NC(=O)[C@H](CO)NC(=O)[C@H](CC(=O)O)NC(=O)[C@H](CC(C)C)NC(=O)[C@H](Cc1ccc(O)cc1)NC(=O)[C@H](CCCCN)NC(=O)[C@H](CO)NC(=O)[C@H](Cc1ccc(O)cc1)NC(=O)[C@H](CC(=O)O)NC(=O)[C@H](CO)NC(=O)[C@@H](NC(=O)[C@@H](O)Cc1ccccc1)[C@@H](C)O)C(C)C)C(=O)N[C@@H](CC(N)=O)C(=O)N[C@H](C(=O)O)[C@@H](C)O
# B2: [PLA^6, D^9]Glucagon(aa6-29)-NH2 (peptide)
# peptide: [PhLac]TSDYSKYLDSRRAQDFVQWLMNT-NH2
# modifications: N-terminus assumed
# SMILES: CSCC[C@H](NC(=O)[C@H](CC(C)C)NC(=O)[C@H](Cc1c[nH]c2ccccc12)NC(=O)[C@H](CCC(N)=O)NC(=O)[C@@H](NC(=O)[C@H](Cc1ccccc1)NC(=O)[C@H](CC(=O)O)NC(=O)[C@H](CCC(N)=O)NC(=O)[C@H](C)NC(=O)[C@H](CCCNC(=N)N)NC(=O)[C@H](CCCNC(=N)N)NC(=O)[C@H](CO)NC(=O)[C@H](CC(=O)O)NC(=O)[C@H](CC(C)C)NC(=O)[C@H](Cc1ccc(O)cc1)NC(=O)[C@H](CCCCN)NC(=O)[C@H](CO)NC(=O)[C@H](Cc1ccc(O)cc1)NC(=O)[C@H](CC(=O)O)NC(=O)[C@H](CO)NC(=O)[C@@H](NC(=O)[C@@H](O)Cc1ccccc1)[C@@H](C)O)C(C)C)C(=O)N[C@@H](CC(N)=O)C(=O)N[C@H](C(N)=O)[C@@H](C)O
# B3: [(CSA-2)^9]Glucagon(aa6-29)-NH2 (peptide)
# peptide: FTS[CSA‑2]YSKYLDSRRAQDFVQWLMNT-NH2
# modifications: N-terminus assumed
# SMILES: CSCC[C@H](NC(=O)[C@H](CC(C)C)NC(=O)[C@H](Cc1c[nH]c2ccccc12)NC(=O)[C@H](CCC(N)=O)NC(=O)[C@@H](NC(=O)[C@H](Cc1ccccc1)NC(=O)[C@H](CC(=O)O)NC(=O)[C@H](CCC(N)=O)NC(=O)[C@H](C)NC(=O)[C@H](CCCNC(=N)N)NC(=O)[C@H](CCCNC(=N)N)NC(=O)[C@H](CO)NC(=O)[C@H](CC(=O)O)NC(=O)[C@H](CC(C)C)NC(=O)[C@H](Cc1ccc(O)cc1)NC(=O)[C@H](CCCCN)NC(=O)[C@H](CO)NC(=O)[C@H](Cc1ccc(O)cc1)NC(=O)[C@H](CSCCC(=O)O)NC(=O)[C@H](CO)NC(=O)[C@@H](NC(=O)[C@@H](N)Cc1ccccc1)[C@@H](C)O)C(C)C)C(=O)N[C@@H](CC(N)=O)C(=O)N[C@H](C(N)=O)[C@@H](C)O
# notes: also called [C^9(SCH2CH2COOH)]Glucagon (aa6-29)-NH2; peptide no; 14
# B4: [Lys^9]Glucagon(aa6-29)-NH2 (peptide)
# peptide: FTSKYSKYLDSRRAQDFVQWLMNT-NH2
# notes: also called [K^9]Glucagon(aa6-29)-NH2; peptide no; 16
# B5: [hGlu^9]Glucagon(aa6-29)-NH2 (peptide)
# peptide: FTS[Aad]YSKYLDSRRAQDFVQWLMNT-NH2
# modifications: N-terminus assumed
# SMILES: CSCC[C@H](NC(=O)[C@H](CC(C)C)NC(=O)[C@H](Cc1c[nH]c2ccccc12)NC(=O)[C@H](CCC(N)=O)NC(=O)[C@@H](NC(=O)[C@H](Cc1ccccc1)NC(=O)[C@H](CC(=O)O)NC(=O)[C@H](CCC(N)=O)NC(=O)[C@H](C)NC(=O)[C@H](CCCNC(=N)N)NC(=O)[C@H](CCCNC(=N)N)NC(=O)[C@H](CO)NC(=O)[C@H](CC(=O)O)NC(=O)[C@H](CC(C)C)NC(=O)[C@H](Cc1ccc(O)cc1)NC(=O)[C@H](CCCCN)NC(=O)[C@H](CO)NC(=O)[C@H](Cc1ccc(O)cc1)NC(=O)[C@H](CCCC(=O)O)NC(=O)[C@H](CO)NC(=O)[C@@H](NC(=O)[C@@H](N)Cc1ccccc1)[C@@H](C)O)C(C)C)C(=O)N[C@@H](CC(N)=O)C(=O)N[C@H](C(N)=O)[C@@H](C)O
# notes: also called [hE^9]Glucagon(aa6-29)-NH2; peptide no; 12
# B6: [(CSA-1)^9]Glucagon(aa6-29)-NH2 (peptide)
# peptide: FTS[CSA‑1]YSKYLDSRRAQDFVQWLMNT-NH2
# modifications: N-terminus assumed
# SMILES: CSCC[C@H](NC(=O)[C@H](CC(C)C)NC(=O)[C@H](Cc1c[nH]c2ccccc12)NC(=O)[C@H](CCC(N)=O)NC(=O)[C@@H](NC(=O)[C@H](Cc1ccccc1)NC(=O)[C@H](CC(=O)O)NC(=O)[C@H](CCC(N)=O)NC(=O)[C@H](C)NC(=O)[C@H](CCCNC(=N)N)NC(=O)[C@H](CCCNC(=N)N)NC(=O)[C@H](CO)NC(=O)[C@H](CC(=O)O)NC(=O)[C@H](CC(C)C)NC(=O)[C@H](Cc1ccc(O)cc1)NC(=O)[C@H](CCCCN)NC(=O)[C@H](CO)NC(=O)[C@H](Cc1ccc(O)cc1)NC(=O)[C@H](CSCC(=O)O)NC(=O)[C@H](CO)NC(=O)[C@@H](NC(=O)[C@@H](N)Cc1ccccc1)[C@@H](C)O)C(C)C)C(=O)N[C@@H](CC(N)=O)C(=O)N[C@H](C(N)=O)[C@@H](C)O
# notes: also called [C^9(SCH2COOH)]Glucagon(aa6-29)-NH2; peptide no; 13
# Biological target: T1, human glucagon receptor (human, UniProt P47871 26-477)
# T1 construct: whole, on cells; cAMP assay: transfected HEK293 cells
# Experiment: SPA competition vs 125I-glucagon, receptor membranes
# T1 sequence (P47871 26-477): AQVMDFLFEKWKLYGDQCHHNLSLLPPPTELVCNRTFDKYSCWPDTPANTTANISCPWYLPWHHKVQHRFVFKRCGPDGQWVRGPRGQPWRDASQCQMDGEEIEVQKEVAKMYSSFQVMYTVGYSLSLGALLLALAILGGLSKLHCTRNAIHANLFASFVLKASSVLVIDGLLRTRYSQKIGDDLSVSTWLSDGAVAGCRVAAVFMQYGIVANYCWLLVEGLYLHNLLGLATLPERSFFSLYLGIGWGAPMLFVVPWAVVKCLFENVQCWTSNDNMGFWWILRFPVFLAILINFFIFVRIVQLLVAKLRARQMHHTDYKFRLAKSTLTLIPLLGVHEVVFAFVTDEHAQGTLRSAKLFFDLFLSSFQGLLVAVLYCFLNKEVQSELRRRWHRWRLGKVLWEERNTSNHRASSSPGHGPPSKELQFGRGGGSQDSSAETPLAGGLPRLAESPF
row,IC50,Binder
1,15.5 nM,B1
2,13.8 nM,B2
3,14.2 nM,"[PhLac]TS[Abu(4-SO3H)]YSKYLDSRRAQDFVQWLMNT-NH2 [[PLA^6, hCys(SO3)^9]Glucagon(aa6-29)-NH2]"

# Biological target: T1, human glucagon receptor
# Experiment: cell-based or functional assay
"IC50 (cAMP, inhibit 0.1 nM Glucagon)","IC50 (cAMP, inhibit 0.2 nM Glucagon)",Binder
13.2 nM,,B1
6.9 nM,,B2
,40.2 nM,"[PhLac]TS[Abu(4-SO3H)]YSKYLDSRRAQDFVQWLMNT-NH2 [[PLA^6, hCys(SO3)^9]Glucagon(aa6-29)-NH2]"

# Biological target: T1, human glucagon receptor
# Experiment: cell-based or functional assay
# Remark: another data set of the same source
cAMP IC50,cAMP pA2,Binder
116 nM,6.64,B3
346 nM,6.94,FTSDYSKYLDSRRAQDFVQWLMNT-NH2 (also called peptide no; 15) [Glucagon(aa6-29)-NH2]
398 nM,6.58,B4
472 nM,6.27,B5
101 nM,6.68,B6

# Biological target: T1, human glucagon receptor
# Experiment: SPA competition vs 125I-glucagon, receptor membranes
# Remark: another data set of the same source
row,IC50,Binder
1,146 nM,B3
2,1890 nM,FTSDYSKYLDSRRAQDFVQWLMNT-NH2 (also called peptide no; 15) [Glucagon(aa6-29)-NH2]
3,5780 nM,B4
4,163 nM,B5
5,107 nM,B6
6,36.4 nM,"LTFTSEYSKYLDSRRAQDFVQWLMNT-NH2 (also called peptide no) [[Leu^4, Glu^9]Glucagon(aa4-29)-NH2]"

# Biological target: T2, human GLP-1 receptor (human, UniProt P43220 24-463)
# Experiment: cell-based or functional assay
row,GLP-1 agonism EC50,Binder
1,144 nM,"[PhLac]TSEYSKYLDSRRAQDFVQWLMNT-NH2 (lactam 4-7) [[PLA6, E9K12(Lactam)] G(6-29)]"
2,284 nM,"SQGTFTSEYSKYLDERRAKDFVQWLMDT-NH2 (lactam 15-19) [[S2Q3, E9, E16K20(Lactam), D28] G(2-29)]"

# Biological target: T1, human glucagon receptor
# Experiment: cell-based or functional assay
# Remark: another data set of the same source
row,Glucagon antagonism IC50 (inhibit 0.8 nM glucagon),Binder
1,72.5 nM,"[PhLac]TSEYSKYLDSRRAQDFVQWLMNT-NH2 (lactam 4-7) [[PLA6, E9K12(Lactam)] G(6-29)]"
2,23.4 nM,"SQGTFTSEYSKYLDERRAKDFVQWLMDT-NH2 (lactam 15-19) [[S2Q3, E9, E16K20(Lactam), D28] G(2-29)]"

# Biological target: T1, human glucagon receptor
# Experiment: cell-based or functional assay
# Remark: another data set of the same source
cAMP (I/A)50 inhibition index,cAMP pA2,Binder
580,6.64,B3
1730,6.94,FTSDYSKYLDSRRAQDFVQWLMNT-NH2 (also called peptide no; 15) [Glucagon(aa6-29)-NH2]
1990,6.58,B4
2360,6.27,B5
506,6.68,B6

# Biological target: T1, human glucagon receptor
# Experiment: SPA competition vs 125I-glucagon, receptor membranes
# Remark: another data set of the same source
row,IC50,Binder
1,146 nM,B3
2,1670 nM,FTSDYSKYLDSRRAQDFVQWLMNT-NH2 (also called peptide no; 15) [Glucagon(aa6-29)-NH2]
3,3240 nM,B4
4,163 nM,B5
5,107 nM,B6

# Biological target: T2, human GLP-1 receptor
# Experiment: cell-based or functional assay
# Remark: another data set of the same source
row,GLP-1 agonism EC50,Binder
1,45.7 nM,"[PhLac](C16 fatty acid)TSDYSKYLDERRAKDFVQWLMDT-NH2 (lactam 11-15) [[C16FA-O-PLA6, E16K20(lactam),D28]G(6-29)]"
2,129 nM,"[PhLac]TSDK([Glu-C16 fatty acid])SKYLDERRAKDFVQWLMDT-NH2 (lactam 11-15) [[PLA6, K10(EC16FA), E16K20(lactam),D28]G(6-29)]"
3,1290 nM,"[PhLac]TSDYSKYLDERRAK([Glu-C16 fatty acid])DFVQWLMDT-NH2 [[PLA6, E16, K20(EC16FA), D28]G(6-29)]"
4,1410 nM,"[PhLac]TSDYSKYLDERRAKDFVQWLMDK([Glu-C16 fatty acid])-NH2 (lactam 11-15) [[PLA6, E16K20(lactam), D28, K29(EC16FA)]G(6-29)]"
5,105 nM,"[PhLac]TSDK([Glu-C16 fatty acid])SKYLDERRAKDFVQWLMDT-NH2 [[PLA6, K10(EC16FA), E16, K20,D28]G(6-29)]"
6,293 nM,"[PhLac]TSDYSKYLDERRAKDFVK([Glu-C16 fatty acid])WLMDT-NH2 (lactam 11-15) [[PLA6, E16K20(lactam), K24(EC16FA), D28]G(6-29)]"

# Biological target: T1, human glucagon receptor
# Experiment: cell-based or functional assay
# Remark: another data set of the same source
row,Glucagon antagonism IC50 (inhibit 0.4 nM glucagon),Binder
1,338 nM,"[PhLac](C16 fatty acid)TSDYSKYLDERRAKDFVQWLMDT-NH2 (lactam 11-15) [[C16FA-O-PLA6, E16K20(lactam),D28]G(6-29)]"
2,31.1 nM,"[PhLac]TSDK([Glu-C16 fatty acid])SKYLDERRAKDFVQWLMDT-NH2 (lactam 11-15) [[PLA6, K10(EC16FA), E16K20(lactam),D28]G(6-29)]"
3,576 nM,"[PhLac]TSDYSKYLDERRAK([Glu-C16 fatty acid])DFVQWLMDT-NH2 [[PLA6, E16, K20(EC16FA), D28]G(6-29)]"
4,386 nM,"[PhLac]TSDYSKYLDERRAKDFVQWLMDK([Glu-C16 fatty acid])-NH2 (lactam 11-15) [[PLA6, E16K20(lactam), D28, K29(EC16FA)]G(6-29)]"
5,222 nM,"[PhLac]TSDK([Glu-C16 fatty acid])SKYLDERRAKDFVQWLMDT-NH2 [[PLA6, K10(EC16FA), E16, K20,D28]G(6-29)]"
6,372 nM,"[PhLac]TSDYSKYLDERRAKDFVK([Glu-C16 fatty acid])WLMDT-NH2 (lactam 11-15) [[PLA6, E16K20(lactam), K24(EC16FA), D28]G(6-29)]"
